Measured values: US20140308707A1, “METHOD FOR PRODUCTION OF FACTOR VIII” (Novo Nordisk A/S, priority 2011, published 2014)
Where “and” joins values, the source holds several entries; their conditions need not be identical. Equal values may be shown once.

Assays:
[1] = test system: cell membrane of HEK293 cells; assay: Homologous competition assay: binding of 125I-BDD-FVIII to the cell membrane with blocking agents; details: for % of total binding: 0.5 nM 125I-FVIII, 4° C., 2 hours, Annexin V 500 nM, OPLS 20 mM, Heparin 100 ug/mL, RAP 500 nM; for reduction of membrane attached FVIII: same experiment as Table 2
Protocol: The affinity of purified B-domain deleted factor VIII (BDD-FVIII) (kindly provided by J. Karlsson and L. Thim, Novo Nordisk A/S) to the cell membrane of HEK293 cells was investigated by a homologous competition assay using ^125I-BDD-FVIII and unlabelled BDD-FVIII. Cells were washed once in PBS+1% BSA. 5×10^5 cells were distributed to a microtiter well and the plate was cooled to 4° C. During blocking of the cell surface, binding of BDD-FVIII was examined. A constant concentration of ^125I-FVIII (0.5 nM) was added simultaneously with either Annexin V (0.5 μM, Sigma), Ortho-Phospho-L-serine (20 mM, Sigma), Heparin (100 μg mL-1, Leo Pharmaceuticals), and Receptor Associated Protein (RAP) 0.5 μM (kindly provided by H. H. Petersen, Novo Nordisk A/S) at 4° C. to prevent endocytosis.
The plate was incubated at 4° C. for 2 hours with gentle shaking. After centrifugation unbound (non-membrane attached) ^125I-FVIII was removed and cells were washed twice in ice-cold assay buffer (10 mM HEPES, 150 mM NaCl, 4 mM KCl, 11 mM glucose, 5 mM CaCl2, 1 mg ml^−1 BSA, pH 7.4). Surface bound ^125I-FVIII was counted on a gamma-counter. The experiments were performed twice in triplicate. Non-specific binding was estimated in the presence of 12000× excess of unlabeled BDD Factor VIII.
In an attempt to determine potent inhibitors of the cell membrane interaction, four proteins known for their specific effect in either: 1) blocking phosphatidylserine (annexin V), 2) interacting with the C2 domain of FVIII (OPLS), 3) interacting with receptors that facilitate internalisation followed by degradation such as LRP (Lipoprotein receptor-related protein) and HSPGs (heparin sulphate proteoglycans) were tested (RAP, heparin).

[2] = test system: CHO DUKX B11 cells stably expressing BDD-FVIII; assay: FVIII membrane displacement cell cultures (additives in culture medium, culture fluid and membrane bound fraction assayed); format: cell-based; details: 24 hours, serum free medium, OPLS 20 mM, F8 LC 1.38 μM, Lactadherin 0.15 μM, unit from b101
Protocol: The additives mentioned below (lactadherin, Factor VIII light chain and/or OPLS) were added to the culture medium and the cells were incubated for 24 hours following assaying of the culture fluid and the membrane bound fraction.

HKB11 cells [3] = assay: Transient co-expression with F8, Factor VIII:Ag ELISA; format: cell-based
Protocol: (§1) HEK293 cells were maintained in commercial FreeStyle medium supplemented with 50 U/mL penicillin and 50 ug/mL streptomycin. Cells were grown as suspension cells in shakers and incubated at 37° C. under 5% CO2 and 95% relative humidity conditions.
(§2) Cells were seeded at a density of 3×10^5 cells/mL and passaged every 3-4 days. For transfection experiments the cell culture was scaled up until the target density was reached. Viable and total cell concentrations were evaluated by Cedex (Innovartis) analysis. The instrument uses image analysis software for automated cell counting and viable cells were identified based on their ability to exclude trypan blue.
(§3) Plasmid DNA was transfected into HKB11 cells by 293 fectin following the manufacturer's recommendations. Conditioned medium was harvested on indicated days following gentle centrifugation of the suspension culture. The cell pellet was resuspended in FreeStyle medium containing 0.5M NaCl and after gentle centrifugation, a sample, representing the FVIII attached to the cell membrane was taken. Samples were stored at −80° C. until analysis.
(§4) FVIII coagulation activity was measured by a two-stage chromogenic assay (Coamatic Factor VIII analysis kit, Chromogenix). Factor VIII:Ag assay was performed using polyclonal antibodies from Affinity Biologicals (F8C-EIA). Both assays were done following the manufactures instructions and with in-house B-domain deleted affinity purified Factor VIII as standard.

HKB11 cells [4] = assay: Transient co-expression with F8, FVIII coagulation activity (two-stage chromogenic assay, coa); format: cell-based; details: for displacement of F8 from the cell surface into the supernatant: in words
Protocol: as §1, §2, §3, §4

N[C@@H](COP(=O)(O)O)C(=O)O [OPLS, Ortho-Phospho-L-serine, reference compound]
% of total binding [1]: 68.4%
reduction of membrane attached FVIII [1]: ~30%
supernatant average (activity of FVIII in the culture medium) [2]: 6000 mU/mL and 6347 mU/mL
wash average (FVIII activity on the membrane) [2]: 1691 mU/mL

Heparin
% of total binding [1]: 86.8%
reduction of membrane attached FVIII [1]: small but not significant effect

RAP: Receptor Associated Protein (RAP)
% of total binding [1]: 106.6%
reduction of membrane attached FVIII [1]: no effect

B1: Annexin V: Ca++ dependent phospholipid-binding protein that react with phosphatidylserine (Sigma) (protein)
chain: MAQVLRGTVTDFPGFDERADAETLRKAMKGLGTDEESILTLLTSRSNAQRQEISAAFKTLFGRDLLDDLKSELTGKFEKLIVALMKPSRLYDAYELKHALKGAGTNEKVLTEIIASRTPEELRAIKQVYEEEYGSSLEDDVVGDTSGYYQRMLVVLLQANRDPDAGIDEAQVEQDAQALFQAGELKWGTDEEKFITIFGTRSVSHLRKVFDKYMTISGFQIEETIDRETSGNLEQLLLAVVKSIRSIPAYLAETLYYAMKGAGTDDHTLIRVMVSRSEIDLFNIRKEFRKNFATSLYSMIKGDTSGDYKKALLLLCGEDD
modifications: homo sapiens
% of total binding [1]: 28.5%
reduction of membrane attached FVIII [1]: ~70%

B2: Lactadherin: lactadherin, agent that binds to phosphatidylserine; added to medium or co-expressed with F8 (protein)
chain: LDICSKNPCHNGGLCEEISQEVRGDVFPSYTCTCLKGYAGNHCETKCVEPLGMENGNIANSQIAASSVRVTFLGLQHWVPELARLNRAGMVNAWTPSSNDDNPWIQVNLLRRMWVTGVVTQGASRLASHEYLKAFKVAYSLNGHEFDFIHDVNKKHKEFVGNWNKNAVHVNLFETPVEAQYVRLYPTSCHTACTLRFELLGCELNGCANPLGLKNNSIPDKQITASSSYKTWGLHLFSWNPSYARLDKQGNFNAWVAGSYGNDQWLQVDLGSSKEVTGIITQGARNFGSVQFVASYKVAYSNDSANWTEYQDPRTGSSKIFPGNWDNHSHKKNLFETPILARYVRILPVAWHNRIALRLELLGC
modifications: homo sapiens
notes: added to medium or co-expressed with F8
FVIII ELISA, supernatant (HKB11 cells [3]; harvest day 3, supernatant): 530 ± 113 ng/mL
FVIII ELISA, wash (HKB11 cells [3]; harvest day 3, wash): 67 ± 0 ng/mL
FVIII ELISA, supernatant (HKB11 cells [3]; harvest day 4, supernatant): 270 ± 54 ng/mL
FVIII ELISA, wash (HKB11 cells [3]; harvest day 4, wash): 278 ± 37 ng/mL
FVIII ELISA, supernatant (HKB11 cells [3]; harvest day 5, supernatant): 108 ± 119 ng/mL
FVIII ELISA, wash (HKB11 cells [3]; harvest day 5, wash): 287 ± 33 ng/mL
displacement of F8 from the cell surface into the supernatant (HKB11 cells [4]; day 3, viability ~90%): effectively displacement
displacement of F8 from the cell surface into the supernatant (HKB11 cells [4]; day 4, viability ~80%): could no longer keep F8 in the supernatant
coa, supernatant (HKB11 cells [4]; harvest day 3, supernatant): 5448 +/− 122 mU/ml
coa, wash (HKB11 cells [4]; harvest day 3, wash (0.5M NaCl, membrane attached FVIII)): 640 +/− 116 mU/ml
coa, supernatant (HKB11 cells [4]; harvest day 4, supernatant): 1044 +/− 425 mU/ml
coa, wash (HKB11 cells [4]; harvest day 4, wash (0.5M NaCl, membrane attached FVIII)): 3575 +/− 558 mU/ml
coa, supernatant (HKB11 cells [4]; harvest day 5, supernatant): 327 +/− 13 mU/ml
coa, wash (HKB11 cells [4]; harvest day 5, wash (0.5M NaCl, membrane attached FVIII)): 3510 +/− 46 mU/ml
supernatant average (activity of FVIII in the culture medium) [2]: 8085 mU/mL
wash average (FVIII activity on the membrane) [2]: 1406 mU/mL
supernatant average (activity of FVIII in the culture medium) ([2]; listed as lactadherin): further increases the amount of FVIII in the culture medium
wash average (FVIII activity on the membrane) ([2]; listed as lactadherin): a decline in membrane bound FVIII is observed
